Source: US20220401557A1 (Chugai, published 2022)
Non-standard residues stand in square brackets, D forms with d. No end group written: not given here. pGlu = O=C1CC[C@@H](C(=O)O)N1

T1: synthetic peptide (epitope peptide) corresponding to the sequence from the N terminus to position 15 of CD3
T1 construct: also called XDGNEEMGGITQTPY
T1 peptide: [pGlu]DGNEEMGGITQTPY


Target: T1, synthetic peptide (epitope peptide) …
Assay: X-ray crystal structure of the Fab with the epitope peptide
Description: Furthermore, a sample was prepared by adding, to the obtained anti-CD3 antibody Fab fragment, a synthetic peptide (epitope peptide) which corresponds to the sequence from the N terminus to position 15 of CD3 and shown in SEQ ID NO: 14 below: XDGNEEMGGITQTPY (X: L-pyroglutamic acid) (SEQ ID NO: 14) to become 2 mM. The vapor diffusion method was used to obtain crystals from the sample by allowing the sample to stand at 20° C. under reservoir conditions of 100 mM MES buffer at pH7.0, 0.91% PEG3350, and 1.0 M sodium citrate tribasic dihydrate. These crystals were subject to X-ray crystallography based on the above-mentioned crystal structure of the anti-CD3 antibody Fab fragment alone according to a method known to those skilled in the art to obtain the crystal structure of a complex of the anti-CD3 antibody Fab fragment and the epitope peptide from the diffraction intensity data at 25 to 3.5 angstrom resolution. Its crystallographic reliability factor R (R factor) and Free R value (R free) were 18.55% and 26.53%, respectively.

| binding result | Binder |
| --- | --- |
| binds | Anti-CD3 antibody Fab fragment (humanized anti-CD3 antibody) (Fab, V domains shown, Fab made by papain cleavage of a One-arm antibody) VH: QVQLVESGGGVVQPGRSLRLSCAASGFTFSNAWMHWVRQAPGKGLEWVAQIKAKSNNYATYYAESVKGRFTISRDDSKNSLYLQMNSLKTEDTAVYYCRYVHYGAYYGVDAWGQGTTVTVSS VL: DIVMTQSPLSLPVTPGEPASISCRSSQSLVHSNRNTYLHWYQQKPGQAPRLLIYKVSNRFSGVPDRFSGSGSGTDFTLKISRVEAEDVGVYYCGQGTQVPYTFGQGTKLEIKR |

Target: T2, CD3εδ heterodimer (Homo sapiens (Human), UniProt P07766 22-126; P04234 22-100)
T2 construct: also called CD3ε8
T2 sequence (P07766 other isoform, or with tags, fused parts or gaps mutant limits assumed, chain 1 of 2): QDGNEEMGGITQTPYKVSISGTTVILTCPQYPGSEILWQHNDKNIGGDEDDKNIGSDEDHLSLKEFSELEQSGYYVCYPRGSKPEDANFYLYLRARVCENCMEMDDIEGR
T2 sequence (P04234 other isoform, or with tags, fused parts or gaps mutant limits assumed, chain 2 of 2): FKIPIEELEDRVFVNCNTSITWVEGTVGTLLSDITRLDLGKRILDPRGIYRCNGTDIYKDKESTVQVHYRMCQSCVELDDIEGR
Assay: SPR, Biacore T200; antibody captured on Protein G (CM3 chip), CD3εδ heterodimer as analyte, single cycle kinetics, 37 C
Description: The activity of binding to the CD3εδ heterodimer was measured for: the rat anti-CD3 antibody containing as the variable region the heavy chain variable region (SEQ ID NO: 10) and the light chain variable region (SEQ ID NO: 11) described in Reference Example 1; a combination of a human anti-CD3 antibody and a rat anti-CD3 antibody which contains as the variable region a heavy chain variable region (SEQ ID NO: 12) and a light chain variable region (SEQ ID NO: 13) where the light chain has been humanized by a method known to those skilled in the art; a humanized anti-CD3 antibody which contains as the variable region a heavy chain variable region (SEQ ID NO: 12) and a light chain variable region (SEQ ID NO: 13), which have been humanized by a method known to those skilled in the art; and AN121 which contains as the variable region a heavy chain variable region (SEQ ID NO: 43) and a light chain variable region (SEQ ID NO: 13). The heavy chain variable regions were fused with F760mnP17 (SEQ ID NO: 39) used as the constant region and the light chain variable regions were fused with the Kappa chain (SEQ ID NO: 36) used as the constant region, and the antibodies were expressed according to the method of Reference Example 2.
The activity of binding to the CD3εδ heterodimer was assessed using BiacoreT200. Specifically, Protein G was immobilized onto a CM3 chip by a method known to those skilled in the art, and antibodies to be evaluated were bound to the immobilized Protein G. Then, the CD3εδ heterodimer prepared at 4000, 1000, 250, 62.5, 15.6, and 3.9 nM was bound thereto, and the binding was evaluated using the single cycle kinetics mode. Measurements were taken under conditions of 20 mM ACES, 150 mM NaCl, and pH7.4 at 37° C.

| Kd [nM] | koff [s⁻¹] | kon [M⁻¹ s⁻¹] | Binder |
| --- | --- | --- | --- |
| 262 | 0.0124 | 47300 | CE115VH-F760mnP17/GLS3000-k0 (Combination of rat anti-CD3 antibody and human anti-CD3 antibody) (antibody, human IgG1, kappa, N297A, V domains shown) VH: EVQLVETGGSLVQPGKSLKLTCATSGFTFSNAWMHWVRQSPEKQLEWVAQIKAKSNNYATYYAESVKGRFTISRDDSKSNIYLQMNSLKEEDTAVYYCRYVHYGAYYGVDAWGQGTSVTVSS VL: DIVMTQSPLSLPVTPGEPASISCRSSQSLVHSNRNTYLHWYQQKPGQAPRLLIYKVSNRFSGVPDRFSGSGSGTDFTLKISRVEAEDVGVYYCGQGTQVPYTFGQGTKLEIKR |
| 191 | 0.00771 | 40400 | CE115VH-F760mnP17/rCE115VL-k0 (Rat anti-CD3 antibody) (antibody, human IgG1, kappa, N297A, V domains shown) VH: EVQLVETGGSLVQPGKSLKLTCATSGFTFSNAWMHWVRQSPEKQLEWVAQIKAKSNNYATYYAESVKGRFTISRDDSKSNIYLQMNSLKEEDTAVYYCRYVHYGAYYGVDAWGQGTSVTVSS VL: DVVMTQTPVSMSVSLGGQVSISCRSSQSLVHNNGNTYVSWYIQKPSQSPQLLIYKVSNRFSGISDRFSGSGSGTDFTLKISRVEPDDLGVYYCGQGTQDPYTFGAGTKLELKR |

Second part, the binder before the results:

| Binder | Kd [nM] | koff [s⁻¹] | kon [M⁻¹ s⁻¹] |
| --- | --- | --- | --- |
| AN121H-F760mnP17/GLS3000-k0 (AN121) (antibody, human IgG1, kappa, N297A, V domains shown) VH: QVQLVESGGGLVQPGRSLRLSCAASGFTFSNAWMHWVRQAPGKGLEWVAQIKDKANGYNAYYAESVKGRFTISRDDSKNSIYLQMNSLKTEDTAVYYCRYVHYTTYAGFSYKFGVDAWGQGTTVTVSS VL: DIVMTQSPLSLPVTPGEPASISCRSSQSLVHSNRNTYLHWYQQKPGQAPRLLIYKVSNRFSGVPDRFSGSGSGTDFTLKISRVEAEDVGVYYCGQGTQVPYTFGQGTKLEIKR | 9.68 | 0.000723 | 74700 |
| CE115HA000-F760mnP17/GLS3000-k0 (Humanized anti-CD3 antibody) (antibody, human IgG1, kappa, N297A, V domains shown) VH: QVQLVESGGGVVQPGRSLRLSCAASGFTFSNAWMHWVRQAPGKGLEWVAQIKAKSNNYATYYAESVKGRFTISRDDSKNSLYLQMNSLKTEDTAVYYCRYVHYGAYYGVDAWGQGTTVTVSS VL: DIVMTQSPLSLPVTPGEPASISCRSSQSLVHSNRNTYLHWYQQKPGQAPRLLIYKVSNRFSGVPDRFSGSGSGTDFTLKISRVEAEDVGVYYCGQGTQVPYTFGQGTKLEIKR | 556 | 0.0288 | 51800 |
